Values quoted from earlier work in article PMC2806950.

Molecular target: EcoKI R/M enzyme (Escherichia coli) (UniProt P08956)
Test: given as Ka

Chain of EcoKI R/M enzyme (Escherichia coli) (P08956 whole entry, chain 1 of 3): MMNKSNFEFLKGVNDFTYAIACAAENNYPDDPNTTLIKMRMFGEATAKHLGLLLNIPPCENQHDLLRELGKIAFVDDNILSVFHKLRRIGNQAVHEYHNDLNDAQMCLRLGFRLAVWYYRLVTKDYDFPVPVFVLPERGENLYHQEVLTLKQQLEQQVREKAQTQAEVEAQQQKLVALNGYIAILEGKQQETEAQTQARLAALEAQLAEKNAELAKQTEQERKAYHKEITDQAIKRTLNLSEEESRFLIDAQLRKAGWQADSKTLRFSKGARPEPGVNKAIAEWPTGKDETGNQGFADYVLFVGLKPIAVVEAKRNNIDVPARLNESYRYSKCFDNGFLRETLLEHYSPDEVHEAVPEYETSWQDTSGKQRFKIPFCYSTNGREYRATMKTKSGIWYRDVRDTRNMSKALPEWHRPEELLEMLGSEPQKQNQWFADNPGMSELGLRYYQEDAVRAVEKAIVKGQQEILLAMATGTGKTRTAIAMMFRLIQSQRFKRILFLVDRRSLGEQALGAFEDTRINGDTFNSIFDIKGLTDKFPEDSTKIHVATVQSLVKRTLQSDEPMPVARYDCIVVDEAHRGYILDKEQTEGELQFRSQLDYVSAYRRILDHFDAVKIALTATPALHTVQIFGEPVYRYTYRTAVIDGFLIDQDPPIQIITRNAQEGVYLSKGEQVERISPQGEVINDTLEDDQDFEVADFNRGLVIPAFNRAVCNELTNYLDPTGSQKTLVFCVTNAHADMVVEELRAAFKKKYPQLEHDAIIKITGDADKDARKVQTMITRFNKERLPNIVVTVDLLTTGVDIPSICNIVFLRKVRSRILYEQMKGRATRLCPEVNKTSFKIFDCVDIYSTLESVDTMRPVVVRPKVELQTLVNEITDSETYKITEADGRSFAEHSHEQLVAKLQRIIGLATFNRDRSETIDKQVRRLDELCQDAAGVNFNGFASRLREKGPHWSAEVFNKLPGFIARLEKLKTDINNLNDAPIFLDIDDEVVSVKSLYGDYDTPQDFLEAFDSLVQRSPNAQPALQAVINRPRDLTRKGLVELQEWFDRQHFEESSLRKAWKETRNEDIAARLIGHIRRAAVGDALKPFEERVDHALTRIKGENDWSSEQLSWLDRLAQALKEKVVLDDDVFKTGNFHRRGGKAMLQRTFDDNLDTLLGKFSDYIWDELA
Chain of EcoKI R/M enzyme (Escherichia coli) (P08957 whole entry, chain 2 of 3, further chain): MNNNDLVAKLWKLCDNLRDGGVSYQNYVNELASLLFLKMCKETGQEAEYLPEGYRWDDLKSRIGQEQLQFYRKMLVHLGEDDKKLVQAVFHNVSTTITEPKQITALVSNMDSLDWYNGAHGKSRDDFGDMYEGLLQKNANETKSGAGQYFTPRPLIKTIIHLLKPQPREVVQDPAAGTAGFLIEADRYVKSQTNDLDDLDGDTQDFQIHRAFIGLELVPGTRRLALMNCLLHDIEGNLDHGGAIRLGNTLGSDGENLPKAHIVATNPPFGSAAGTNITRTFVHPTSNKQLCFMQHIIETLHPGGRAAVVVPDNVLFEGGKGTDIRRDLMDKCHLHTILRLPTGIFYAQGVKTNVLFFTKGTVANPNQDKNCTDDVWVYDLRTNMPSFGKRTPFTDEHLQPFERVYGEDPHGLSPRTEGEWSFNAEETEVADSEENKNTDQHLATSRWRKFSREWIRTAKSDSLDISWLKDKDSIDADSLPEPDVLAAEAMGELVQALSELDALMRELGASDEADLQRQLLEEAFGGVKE
Chain of EcoKI R/M enzyme (Escherichia coli) (P05719 2-464, chain 3 of 3, further chain): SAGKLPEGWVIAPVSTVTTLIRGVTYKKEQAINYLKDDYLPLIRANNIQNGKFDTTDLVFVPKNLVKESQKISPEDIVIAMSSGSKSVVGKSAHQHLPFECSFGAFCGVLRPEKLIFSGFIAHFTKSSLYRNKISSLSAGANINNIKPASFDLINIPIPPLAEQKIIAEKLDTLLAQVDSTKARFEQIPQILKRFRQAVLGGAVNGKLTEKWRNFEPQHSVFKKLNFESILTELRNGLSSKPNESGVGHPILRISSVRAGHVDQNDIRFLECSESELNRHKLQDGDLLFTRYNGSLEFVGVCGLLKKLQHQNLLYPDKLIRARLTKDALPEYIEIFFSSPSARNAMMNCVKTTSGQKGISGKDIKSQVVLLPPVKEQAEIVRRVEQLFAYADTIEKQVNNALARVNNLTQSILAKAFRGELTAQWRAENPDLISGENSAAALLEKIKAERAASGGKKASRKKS
Chain of Ocr (P03775 whole entry): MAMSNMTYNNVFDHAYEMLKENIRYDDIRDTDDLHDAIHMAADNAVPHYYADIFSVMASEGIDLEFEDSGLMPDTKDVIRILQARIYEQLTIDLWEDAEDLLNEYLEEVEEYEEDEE

For Ocr (from UniProt P03775), the Kd is listed as 50 pM.
